From publication doi:10.1101/754457, “Architecture of the Mto1/2 microtubule nucleation complex” (bioRxiv, 2019)

B2: 6xHis-TEV-Mto1[bonsai] (Mto1 residues 131-549) (domain or fragment, S. pombe, UniProt O94488 131-549, looked up)
chain: TTDDEQLSPVLTANQGFQSQEQYEEDSYNNYDYTSDPSSPNYISSSLDQLPHLDDEDDLQLTPIKEERNYLHSQDAPTTNALSKKISDILIPASAMKDLKDRKNALAKEFEESQPGSSLTLKEQANVIDNLRKEVFGLKLKCYFLYDQLNKFHDQEVQDIMKQNIDLKTLTMELQRAVAGYEKKISGLESRIKPDQSFNLSTPSPAPSNLITLQSRYSQALSELETTKRAFAALRKEKSKKTNYSVGAYNEDRNVLSNMLDNERREKEALLQELESLRVQLSKKVPMPAKNTDERVIETLQRSNELLRMDISMQNEALLLRKQENDRLVKQVEELTVALNSGKMNAIVEAESSKNELWDSMMVSRMKTQEQSIELTRLYKQLQDIEEDYENKLMRMEQQWREDVDQLQEYVEEITQELQ
notes: Mto1, S. pombe CM1 protein, residues 131-549 of full-length Mto1 (1115 residues); a TEV site lies between the 6xHis tag and Mto1; Dimeric by SEC-MALS; No TEV cleavage is described; also called 6xHis-tagged Mto1[bonsai]; source: Sf9 (MultiBac baculovirus), purified (nickel chelate, Superose 6 SEC); expressed alone or co-expressed with untagged Mto2; not shown: His6, N-terminal, kept

Tests used:
[1] = target: the molecule itself; test: SEC-MALS; Superdex 75 10/300 for protein fragments; NND injected at ∼5 mg/mL (600 µM) and a dilution series, TCD at ∼10 mg/mL (1000 µM) and a dilution series
[2] = target: the molecule itself; test: SEC-MALS; Superose 6 10/300 for full-length proteins and complexes; injected at ∼4.5 mg/mL (Mto1/2[bonsai]), ∼1.3 mg/mL (Mto1[bonsai]), ∼1.6 mg/mL (Mto2), 1.4 mg/mL (Mto2-134A136A), 1.3 mg/mL (Mto2-134AAA)
[3] = target: the molecule itself; test: SEC; SEC-dilution analysis, Superose 6 10/300, 4°C, 100 µL loaded; undiluted ∼9 mg/mL (co-purified Mto1/2[bonsai]), ∼1.5 mg/mL (Mto1[bonsai]), ∼2.5 mg/mL (Mto2), and 10X dilution; fractions by SDS-PAGE and western blot
[4] = target: the molecule itself; test: cross-linking; EDC/Sulfo-NHS zero-length cross-linking with mass spectrometry (CLMS) of co-purified Mto1/2[bonsai] complex; phosphate pH 7.5, 300 mM NaCl, 5% glycerol, 2 h at 18°C
[5] = target: B2; test: SEC; SEC-dilution analysis, Superose 6 10/300, 4°C, 100 µL loaded; undiluted ∼9 mg/mL (co-purified Mto1/2[bonsai]), ∼1.5 mg/mL (Mto1[bonsai]), ∼2.5 mg/mL (Mto2), and 10X dilution; fractions by SDS-PAGE and western blot; conditions: both partners purified
[6] = target: the molecule itself; test: ITC; dilution series, 25°C, iTC200; 100 µM NND injected (20 x 2 µL) into 50 mM Tris-HCl pH 8.0, 150 mM NaCl, 2 mM EDTA; dimer dissociation model; dimer to monomers
[7] = target: the molecule itself; test: cross-linking; intermolecular disulfide between engineered cysteines; SDS-PAGE with and without β-mercaptoethanol

B1: Mto2 Twin-Cysteine Domain (TCD; Mto2 residues 180-265) (domain or fragment, S. pombe, UniProt Q9USP7 180-265, looked up)
chain: PAPLSTMQTALMRLRTYHPSPIILKPVEQAVNHAITLVNTSPSSVVDALCRSLAELCLGLVQEAIDASILSQQESSNSLDLVRHTP
notes: Mto2, S. pombe, residues 180-265 (TCD); Residues 180-250 (chain A) and 180-248 (chain B) are built in the structure; source: E. coli BL21(DE3) pRIL, purified (glutathione-sepharose, TEV cleavage, SEC); selenomethionine-labelled protein from B834(DE3); not shown: GST, N-terminal, cleaved
stoichiometry N [1]: 2

B2
stoichiometry N [2]: 2

B3: 6xHis-tagged Mto2 (natural protein, S. pombe, UniProt Q9USP7 1-397, looked up)
chain: MSEHNYQSDREVAEDPFLNYEASANQLSSNSRESTPRGSPWRAGMRSASLMTEPLEDSMYSDNNYLDNGVSFTKDENPLYSPSWPSLADANVNSMKSNNAIQEHKAAKFVSEKSLEKVSTADNNLVLQELENLRERLNQVELQLSERPSSYLGYHNNLSPYRSPNSYPSLLPSTHSPHSPAPLSTMQTALMRLRTYHPSPIILKPVEQAVNHAITLVNTSPSSVVDALCRSLAELCLGLVQEAIDASILSQQESSNSLDLVRHTPPLNYTSSVDSSPQRMASDSYGRPSLHLNDPFPSVDLQSNELSHHNVRTTLFSDDSRFHSKIHTHSTPPSQMYSAASHFRYRSDPSTRHVSNSTNKSSLHPSPTSLRVAHPIIPQRASPASQSFPSLQDTPSP
notes: Forms a range of multimers; Construct described in Leong et al., 2019; also called wild-type Mto2; 6xHis-Mto2; source: Sf9 (MultiBac baculovirus), purified (nickel chelate, Superose 6 SEC); also Sf9 co-infected with GST-Mto1[bonsai] virus, in lysate
binding result [3]: binds

B4: Mto1/2[bonsai] complex (complex, S. pombe)
chain 1: TTDDEQLSPVLTANQGFQSQEQYEEDSYNNYDYTSDPSSPNYISSSLDQLPHLDDEDDLQLTPIKEERNYLHSQDAPTTNALSKKISDILIPASAMKDLKDRKNALAKEFEESQPGSSLTLKEQANVIDNLRKEVFGLKLKCYFLYDQLNKFHDQEVQDIMKQNIDLKTLTMELQRAVAGYEKKISGLESRIKPDQSFNLSTPSPAPSNLITLQSRYSQALSELETTKRAFAALRKEKSKKTNYSVGAYNEDRNVLSNMLDNERREKEALLQELESLRVQLSKKVPMPAKNTDERVIETLQRSNELLRMDISMQNEALLLRKQENDRLVKQVEELTVALNSGKMNAIVEAESSKNELWDSMMVSRMKTQEQSIELTRLYKQLQDIEEDYENKLMRMEQQWREDVDQLQEYVEEITQELQ
chain 2: MSEHNYQSDREVAEDPFLNYEASANQLSSNSRESTPRGSPWRAGMRSASLMTEPLEDSMYSDNNYLDNGVSFTKDENPLYSPSWPSLADANVNSMKSNNAIQEHKAAKFVSEKSLEKVSTADNNLVLQELENLRERLNQVELQLSERPSSYLGYHNNLSPYRSPNSYPSLLPSTHSPHSPAPLSTMQTALMRLRTYHPSPIILKPVEQAVNHAITLVNTSPSSVVDALCRSLAELCLGLVQEAIDASILSQQESSNSLDLVRHTPPLNYTSSVDSSPQRMASDSYGRPSLHLNDPFPSVDLQSNELSHHNVRTTLFSDDSRFHSKIHTHSTPPSQMYSAASHFRYRSDPSTRHVSNSTNKSSLHPSPTSLRVAHPIIPQRASPASQSFPSLQDTPSP
notes: Mto1, S. pombe, residues 131-549 of full-length Mto1 (Mto1[bonsai]); Mto2, S. pombe, untagged in the co-expression; Near-equal stoichiometry of the two chains; a range of multimer sizes, so no copy numbers; also called 6xHis-tagged Mto1/2[bonsai]; recombinant Mto1/2[bonsai]; source: Sf9 (MultiBac baculovirus), co-expressed, purified (nickel chelate, Superose 6 SEC); not shown: His6, N-terminal, …
binding result [2]: binds

B5: Mto2, untagged, co-expressed with 6xHis-Mto1[bonsai] (natural protein, S. pombe, UniProt Q9USP7 1-397, looked up)
chain: MSEHNYQSDREVAEDPFLNYEASANQLSSNSRESTPRGSPWRAGMRSASLMTEPLEDSMYSDNNYLDNGVSFTKDENPLYSPSWPSLADANVNSMKSNNAIQEHKAAKFVSEKSLEKVSTADNNLVLQELENLRERLNQVELQLSERPSSYLGYHNNLSPYRSPNSYPSLLPSTHSPHSPAPLSTMQTALMRLRTYHPSPIILKPVEQAVNHAITLVNTSPSSVVDALCRSLAELCLGLVQEAIDASILSQQESSNSLDLVRHTPPLNYTSSVDSSPQRMASDSYGRPSLHLNDPFPSVDLQSNELSHHNVRTTLFSDDSRFHSKIHTHSTPPSQMYSAASHFRYRSDPSTRHVSNSTNKSSLHPSPTSLRVAHPIIPQRASPASQSFPSLQDTPSP
notes: Mto2, S. pombe; for coexpression the tag was present only on Mto1[bonsai]; Construct described in Leong et al., 2019; also called Mto2 (of the Mto1/2[bonsai] complex); source: Sf9 (MultiBac baculovirus), co-expressed and co-purified with 6xHis-Mto1[bonsai]
binding result [4]: binds | stoichiometry N [5]: ~1

B6: Mto2 Near-N-terminal Domain (NND; Mto2 residues 78-153) (domain or fragment, S. pombe, UniProt Q9USP7 78-153, looked up)
chain: PLYSPSWPSLADANVNSMKSNNAIQEHKAAKFVSEKSLEKVSTADNNLVLQELENLRERLNQVELQLSERPSSYLG
notes: Mto2, S. pombe, residues 78-153 (NND); Weak homodimer that dissociates upon dilution; also called wild-type NND; source: E. coli BL21(DE3) pRIL, purified (glutathione-sepharose, TEV cleavage, SEC); not shown: GST, N-terminal, cleaved
Kd [6]: 15 µM | stoichiometry N [1]: 2

B7: NND-R147C (domain or fragment, S. pombe, UniProt Q9USP7 78-153, looked up)
chain: PLYSPSWPSLADANVNSMKSNNAIQEHKAAKFVSEKSLEKVSTADNNLVLQELENLRERLNQVELQLSECPSSYLG
notes: Mto2, S. pombe, residues 78-153 (NND) with R147C; Disulfide-linked dimer under non-reducing conditions; source: E. coli BL21(DE3) pRIL, purified (glutathione-sepharose, TEV cleavage, SEC); not shown: GST, N-terminal, cleaved
binding result [7]: binds

B8: NND-N123C (domain or fragment, S. pombe, UniProt Q9USP7 78-153, looked up)
chain: PLYSPSWPSLADANVNSMKSNNAIQEHKAAKFVSEKSLEKVSTADCNLVLQELENLRERLNQVELQLSERPSSYLG
notes: Mto2, S. pombe, residues 78-153 (NND) with N123C; Disulfide-linked dimer under non-reducing conditions; source: E. coli BL21(DE3) pRIL, purified (glutathione-sepharose, TEV cleavage, SEC); not shown: GST, N-terminal, cleaved
binding result [7]: binds
